Assay results from patent US20120276091A1 (HANWHA CHEMICAL, published 2012).

How the values were obtained:
[1] = biological target: T1, recombinant human VCAM-1 domain 1-7/Fc chimera (R&D, 862-VC) (human, UniProt P19320 25-698); experiment: BIACORE (SPR), VCAM1/Fc immobilised on CM5 chip, antibody as analyte, 1:1 binding model
T1 construct: domain: D1-D7; Bought; also called VD7; hVCAM-Fc-chimera; not shown: Fc of the bought chimera
T1 sequence (looked up): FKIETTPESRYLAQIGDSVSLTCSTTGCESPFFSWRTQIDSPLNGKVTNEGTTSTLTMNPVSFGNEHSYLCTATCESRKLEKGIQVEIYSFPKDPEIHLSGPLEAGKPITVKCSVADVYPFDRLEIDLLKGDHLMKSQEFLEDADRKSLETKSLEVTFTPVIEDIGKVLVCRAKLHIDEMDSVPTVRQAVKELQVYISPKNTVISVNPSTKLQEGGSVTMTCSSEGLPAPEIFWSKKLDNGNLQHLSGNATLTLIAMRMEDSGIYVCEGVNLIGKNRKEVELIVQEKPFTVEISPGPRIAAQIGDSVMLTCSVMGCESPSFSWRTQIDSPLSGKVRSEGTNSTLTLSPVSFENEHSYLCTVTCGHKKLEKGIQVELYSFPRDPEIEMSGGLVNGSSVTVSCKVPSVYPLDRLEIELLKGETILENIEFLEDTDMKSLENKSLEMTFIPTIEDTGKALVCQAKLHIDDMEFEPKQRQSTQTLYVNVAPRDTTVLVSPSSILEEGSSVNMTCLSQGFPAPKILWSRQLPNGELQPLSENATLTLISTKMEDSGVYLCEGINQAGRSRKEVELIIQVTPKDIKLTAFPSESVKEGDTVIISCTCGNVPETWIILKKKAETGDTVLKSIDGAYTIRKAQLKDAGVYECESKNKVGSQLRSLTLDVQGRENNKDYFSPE
Method: (§1) Journal of Bioscience and Bioengineering Vol. 100, No. 3, 311-317, 2005).
(§2) For ligand immobilization to the sensor chip CM5, the chip should be first activated with a mixture of N-hydroxysuccinimide (NHS) and […] (Amine Coupling Kit, BR-1000-50) to prepare a NHS-ester-activated chip surface being highly reactive to amino group. 1 mg/ml of ligand to be immobilized was diluted in 97 μl of each sodium acetate solution (vary within the pH range from 4.0 to 5.5) at a dilution ratio of 3/100, and then applied at a flow rate of 10 μl/min for about 3 min (as a negative control, the ligand was diluted using a running buffer, HBS-EP buffer (BIACORE AB, Sweden) in the same manner). In order to immobilize the ligand at a predetermined value target RU (resonance unit), serial injection was carried out automatically, until reaching target RU. […] The final RU was determined by an immobilization report which provides a difference in RU values before and after injection of ethanolamine.
(§3) A flow cell 2-flow cell 1 mode provided by BIACORE instrument was employed in this experiment in order to remove non-specific binding. […] Through this procedure, an association/dissociation curve of the corresponding antigen and antibody was obtained, and an association/dissociation constant KD was calculated by BIAevaluation program (BIACORE AB, Sweden), as shown in FIG. 3.

[2] = biological target: T1, recombinant human VCAM-1 domain 1-7/Fc …; experiment: BIACORE (SPR), recombinant VCAM1/Fc immobilised on sensor chip CM5, antibody as analyte, 1:1 binding model
Method: as §1, §2, §3

- Kd [1]: ~6.3 nM
- koff [2]: 0.00176 s⁻¹
- kon [2]: 279000 M⁻¹ s⁻¹
B1: 7HT antibody (VCAM-1 antibody, VCAM-1 Ab) (antibody, V domains shown)
VH: EVQLVQSGGDLVKPGESLRLSCAASGFTFNDAWMTWVRQPPGKGLEWVGRIKSTTDGGTTNYAAPVEGRFTISRDDSKNTLYLEMNSLRAEDTAVYYCARIPLFNHDSGGYHGAFDIWGQGTMVTVSS
VL: DIQMTQSPSSLAVSLGERATINCKSSQSVLYSSNNKNYLAWYQQKPGQPPKLLIYWASTRESGVPDRFSGSGSGTDFTLTISSLQPEDFASYYCQESYSAPYTFGQGTKVEIKR
notes: Human antibody, full IgG; also called VCAM-1 Ab (7HT); 7HT Ab
